According to the DeepSol protein solubility set:

Assay: soluble on expression in E. coli; label from the status in PepcDB or PDB records

Sequence	soluble on expression in E. coli
HHHHHHSEEEAIQIIADPPLPPASFTLRDYVDHSETLQKLVLLGVDLSKIEKHPEAANLLLRLDFEKDIKQMLLFLKDVGIEDNQLGAFLTKNHAIFSEDLENLKTRVAYLHSKNFSKADVAQMVRKAPFLLNFSVERLDNRLGFFQKELELSVKKTRDLVVRLPRLLTGSLEPVKENMKVYRLELGFKHNEIQHMITRIPKMLTANKMKLTETFDFVHNVMSIPHHIIVKFPQVFNTRLFKVKERHLFLTYLGRAQYDPAKPNYISLDKLVSIPDEIFCEEIAKASVQDFEKFLKTL	soluble
HNPLYTAHELESPFQDHGARVAIVWDKAADTLEKLRRNTPLETIVSVNMMTAMPAVQQALLRLPIPMIRKKRDALTASAPNTIPWEILVGSALGGNGDDIVPCPEVTKKSIALILYTSGTTGTPKGAQLSHGNLFANIMQGKAWVKGIGDQDER	not soluble
HQRWHKKASVLIYGAGSSGRQLATALSQGPEYHAVAFIDDYKALQGQIIQGIPVYSPEEISHVVERKTVQKILLAIPSASRARRKQVLAKIDCLGIQVLTIPGMADIVEGKAKLEEFKDVGVEDLLGRDSVEPKPELMNADIAD	not soluble
HYNTEILKSIDNEWRKTQCMPREVCIDVGKEFGVATNTFFKPPCVSVYRCGGCCNSEGLQCMNTSTSYLSKTLFEITVPLSQGPKPVTISFANHTSCRCMSKLDVYRQVHSIIRR	soluble
ICFSKIFNTQYLSDIRYIDLNQNIDTIKSNFKKGLRYNIKKSKNEGCDLKIIENPSSEDIDHFMECYNSMLCRNESSEKYHFSKQFIMDHFKFIKTFLILAYYQKKVVGAGIFFKGETIMHYHLSGTLKLKGIYPNDLILWESIKKSKDLGLKYFFLGGGVIKDDSLFEYKSGFSK	not soluble
IGDMAPKANMGWYNSFSYKGFNLGMMLTARLGGLVVSNTQGVLDYYGVSKASADARDAGGVWINNGYVDAKEYYQTIGGSNGGLGQYYTYSATNVRLSELSFSYAFPKKWFNNKVGITAGFVAKNLWMIYCKAPFDPELTASTSSNFYQGVDYFMTPSTRNLGFNVKFQF	not soluble
IGKVKLSARGTFTYARNKIVEYDELPQRYPWMAQTGMRINENYLYIAERLYTKEDFIVSKNGSGIETYTLRSELPQSTLGGLLGPGDIKYKDINGDGIIDSYDKVRGVGHPKVPEIVYGFGLNIEYKGFYASAFFQGAGNCSVLLGGNTPEGWFPFSWGVDQSNYRTFALDRWTEKNPSQNVLMPRLHKDNTNAANNSVASTWWLRNGGFLRLKNVELGYQLPKKLLSKINLQAARIYLMGYNIALWDDLKYFDPEAGNANGGNTYPKARTFTLGIDFTF	not soluble
INAVRAALLENAHFMEKFYLQNGRFKQTSTKWPSLPIKEAEGFCIRLNGIARGALDSKFMLKAVAIDKDKNPFIIKMNENLVTFICKKSASSCSDGLDYFKGNDKDCKLLK	not soluble
IPLFSDAEIKPNHATRTTQVGMPLAISVDDYSQLAFVLTQSGEIQYLSMDAPDKPAIYTQQLATNPVSFSQSAPGLGWYGLVDDQGLAHIFKPEFNATLRENTRPPEVVALSTDMNLTLTDAQDPVTQFVFSASTQTPTIVWQTRSGKVKARWQEKSALGVAPTTIDFSFSAGFDAPQQMLLTPDGETLYLRDGSELIVLTKAAQKFTVREVIDLTQGDKKHSVRTIDLLAGAYSLLVTHNDGRVSQWFDTLQNDKRTLTHIRDFKLASELKYLLPDSHRKGFYSFYTNGTLQSHYTTSEKLVLFKRAYKQAPAMAAMSNNERYLITWNDDSLKVAEVDNSYPEVSLSSLWQKVWYEGYPEPEFVWQSTSASDNFEAKFSLVPIAFGTIKAA	not soluble
IQKMANSFQKLASSVVLFETEINEFLVLFTDTKNKREESEPVRQVSTTQEYHQVTLDQQHYFNHKLSDYFRLFKDKTFFFEII	not soluble
IQRSIERALDFRKEVQRLREESDGWFFDIWQPEAVDKAECWPVAPGEDWHGFKDADADHMYLDPVKVTILTPGMDEQGNMDEEGIPAALVAKFLDERGVVVEKTGPYNLLFLFSIGIDKTRAMGLLRGLTEFKRAYDLNLRVKNMLPDLYAEDPDFYRNMRIQDLAQGIH	not soluble
IQTTAPPVKESSFVEKMKKTGRNIIVFYGSQTGTAEEFANRLSKDAHRYGMRGMSADPEEYDLADLSSLPEIDKSLVVFCMATYGEGDPTDNAQDFYDWLQETDVDLTGVKFAVFGLGNKTYEHFNAMGKYVDQRLEQLGAQRIFELGLGDDDGNLEEDFITWREQFWPAVCEFFGVEATGEESSIRQYELVVHEDMDVAKVYTGEMGRLKSYENQKPPFDAKNPFLAAVTANRKLNQGTERHLMHLELDISDSKIRYESGDHVAVYPANDSALVNQIGEILGADLDVIMSLNNLDEESNKKHPFPCPTTYRTALTYYLDITNPPRTNVLYELAQYASEPSEQEHLHKMASSSGEGKELYLSWVVEARRHILAILQDYPSLRPPIDHLCELLPRLQARYYSIASSSKVHPNSVHICAVAVEYEAKSGRVNKGVATSWLRAKEPAGENGGRALVPMFVRKSQFRLPFKSTTPVIMVGPGTGIAPFMGFIQERAWLREQGKEVGETLLYYGCRRSDEDYLYREELARFHKDGALTQLNVAFSREQAHKVYVQHLLKRDREHLWKLIHEGGAHIYVCGDARNMAKDVQNTFYDIVAEFGPMEHTQAVDYVKKLMTKGRYSLDVGS	soluble
IREAIARNPQEIFQYVRLSQVKRDDKVLGYRVSPGKDPVLFESIGLQDGDMAVALNGLDLTDPNVMNTLFQSMNEMTEMSLTVERDGQQHDVYIQF	not soluble
ISEFGSSRMLTTLIYRSQVHPDRPPVDLDALVHRASSKNLPLGITGILLFNGLQFFQVLEGTEEALESLFSEIQSDPRHRDVVELMRDYSAYRRFHGTGMRILDLRLFETDGALEEILRFSTFGVTEPVNDRMFRLLSAFIADGGRYCLPEPLQPSRWMMMPASGTAAPQHLPGQPCQFALQAIVEPAKKRVSSFEALIRSPTGGSPVEMFAAIAAEDRYRFDLESKAYAFALAGQLPLGKHQLAINLLPGSLYHHPDAVGWLMDSLLAAGLRPDQVLIEVTETEVITCFDQFRKVLKALRVAGMKLAIDDFGAGYSGLSLLTRFQPDKIKVDAELVRDIHISGTKQAIVASVVRCCEDLGITVVAEGVETLEEWCWLQSVGIRLFQGFLFSRPCLNGIGEICWPVARQAMDL	soluble
ISEFGSTMARAIYDFFSTPFGNRGLATNRTQLSSLLSSSNSPWQRFLSSMTPLTAPGIVSTPEAPYPGSLMYQESMLHSATVPGVLGSRDAWRTFNVFGLSWTDEGLSGLVAAQDPPPAAPYQPASAQWSDLLNYPRWANRRRELQSKYPLLLRSTLLSAMRAGPVLYVETWPNMISGRLADWFMSQYGNNFVDMCARLTQSCSNMPVEPDGNYDQQMRALISLWLLSYIGVVNQTNTISGFYFSSKTRGQALDSWTLFYTTNTNRVQITQRHFAYVCARSPDWNVDKSWIAAANLTAIVMACRQPPVFANQGVINQAQNRPGFSMNGGTPVHELNLLTTAQECIRQWVMAGLVSAAKGQALTQEANDFSNLIQADLGQIKAQDDALYNQQPGYARRIKPFVNGDWTPGMTAQALAVLATFTA	soluble
ISNKHFEQAIERVVAGMEKKTQVLQKEEKKTVAYHEAGHAIAGWFLQHADPLLKVSIIPRGKGLGYAQYLPKEQYLYSKDQLLDRMCMTLGGRVAEEIFFGRITTGAQDDLQKVTQMAYSQVVKFGMSEKVGPLSFETPAPGEMAFDKPYSEATAQLIDQEQFADLPEILDSGNLPICRKFSIPAICRFAGNFQFRQFANLPNCRKFSIPTICQFAGNFNFQKIADLPEKIVRDLVMNALRRTRDLLLEKRSDIERVALRLLEKEILNREDMIEL	not soluble
ISNRIKGKTVLVTGAGGSIGSEICRQISAFQPKEIILLGHGENSIHSIYTELNGRFGKHIVFHTEIADVQDRDKMFTLMKKYEPHVVYHAAAHKHVPLMEHNPEE	not soluble
ISVLDLTPVSTGQQPGEALRHTLELAEVADSYQYTRFWIAEHHNSGAFVSAATEILIALAAARTGRIRVGSGGVMLPNHSPLKVAENFMSLEALFPGRIDLGLGRAPGTDGRTALALRRSREALAADDFPTQIALLRAFAGETPWPAGSVFDGVLAEPRGVKLPPLWILGSSLYGAQLAGELGVGYAFAYHFSQEDPAVAVQTYHRHFRPGPLAEPYAILGVNALAAPTEDEARDLSLTSAALSLGILSGQRGVLRSPEEARQWLQEMDTDPAKLLKKARIGTPEQVWASLQELGESTGAQEMLVTTYAHDPLKRQQSYRLLAQ	not soluble
ITELTNIHLIKGNLQANSKNEVFAELAQMLLENNRISNKEDFLNDIEIRERLSVTSMDGIAYPHSKSKAVTKPAIAVGVKHEGIEYGDEEGIKPTVFFMIASPDNGADHHIYVLQELFGKFSEEFIEDIHNAKNEHQILNISIQS	soluble
IYAYVPLRTPENTGHLALLDGQLELAYQPIVEVAGSDTAQYQVLLRLRKADGNLLSAGLVIPAAEAAGRIMELDQQVIEQALDILKLHQDTNQQLRLFVSQSVRTLIHEGFSDWIIKNLRERNVNGTGLVIDLRLQDAVIHAIPLKQLCKELLKHNVKFCLSQFESNSEATVLFSELPLNFVRLSQHFGDAHNHPERQKELPLLIEQAHEHNLHVIGQCIEDAQAATFMWMNGVDLIQGNLFQNV	not soluble
IYGYVEKATLIDQNLTLSAKLDTGAKSASLHAVNITEIEKKGIPYLRFTVPTKTGDYSFEGEYVGKVKIKVRSSETNPGLLRTTPIKRPVVLLNIKLGDKVRTIKVNLTNRKRFLYPLLLGRDAIIDFNGAVDPALTFTTKSK	soluble
KAFIDIFDSFDPEPIACGSIAQVYKGVLEGKPVAVKILRPHLIDIINIDLSILDDFKPVMKKVMGVGKNFDIDAFLLEIREMLTREVDLRIEAVNMRRFEDNFKNVKNVSVPKIYPDYC	not soluble
KDADVDITLIDRTNHHLFQPLLYQVATGILSSGEIAPQTRQVLAQQNNVHVLKAEVTDIDTESKTVVADLDDYSKTIEYDSLIVAAGAGQSYFGNDHFAEFAPGMKTIDDALELRARIIGAFERAEMCEDPKERERLLTFVIVGAGPTGVELAGQLAEMAHRTLSGEYTQFTPSNAKIILLDGAPQVLPPFGKR	not soluble
KDAVLVNSELKNIYMKDVINKTNMKITKKIGTQLIFNTNEKTRVWDDDNYNKVISSNVSPAQERRFKEEEEVDIYALIKSYSVICKEQYNYVDGGLIKTSDREKLDSTIYMNIFGEQIPLKEQSKYKITFQNKFVTFQEIDVRLRKSLMSDNRIKLYEHNSICKKGYWGIHYKDNTTKFTDLFTHPNYTDNETIDMSKVSHFDVYLNEEFSKN	soluble
KEDMATSELNKTVQKVEEVSKKIKNKAKPKVVWASVYEGSAYIAPKDSYVDNMIKMAGGINACASIDSNEGRVSIEQLHEVAKDADIFVYSSSSDYAPNLDSIKSSAPVLADLDVVKNGNLWVFAPDYYQSVDKTDELIVDLVEMFHPGTTGEKIKHYINYDK	not soluble
KGFFALSSCTLGLGLILTACGARGKFDQVDDGVIKLATSIQNKDSIAALNTIYKKYKERHPGSYPVQNFQVPGGYSGLRNDIRTRLSAKDGNNFYNI	not soluble
KGTSENKSTTATDTVQAEKPQSGTIHLTRAEFLKKIADYENHSKEWKYLGDKPAIVDFYADWCGPCKMVAPILEELSKEYAGKIYIYKVNVDKEPELARDFGIQGIPTIWFVPMKGEPQVNMGALSKEQLKGYIDKVLLKQ	soluble
